Measured values taken from US20190169286A1 (Chugai, published 2019).
Residue numbers refer to the chain shown, from its start. In names and notes the source's numbering stands.

B1: H1037/L0395 (antibody, human IgG1, kappa, name in Kabat numbering, V domains shown)
VH: QVQLVESGGGLVQPGGSLRLSCAASGFTFDKYYLSWVRQAPGKGLEWVGLIRNKDNYHHPEYSASVKGRFTISRDDSKNSLYLTMSDLKTEDTAVYYCARENHRYDVELAYWGQGTLVTVSS
VL: DIQMTQSPSSLSASVGDRVTITCRASEIIYSYLAWYQQKPGKAPKLLIYKAKTHADGVPSRFSGSGSGTDFTFTISSLQPEDIATYYCKHHFGFPRTFGQGTKVEIKR
B2: H1049/L0442 (antibody, human IgG1, kappa, name in Kabat numbering, V domains shown)
VH: B1 VH with H59T
VL: B1 VL with S31E
notes: L442 = L395 + S31E
B3: H1028/L0442 (antibody, human IgG1, kappa, name in Kabat numbering, V domains shown)
VH: B1 VH with D30S, K31D
VL: B1 VL with S31E
notes: L442 = L395 + S31E
B4: H1037/L0442 (antibody, human IgG1, kappa, name in Kabat numbering, V domains shown)
VH: B1 VH
VL: B1 VL with S31E
notes: L442 = L395 + S31E
B5: H1000/L0395 (antibody, human IgG1, kappa, name in Kabat numbering, V domains shown)
VH: B1 VH with D30S, K31E, Y57H, H59T
VL: B1 VL
B6: H1031/L0395 (antibody, human IgG1, kappa, name in Kabat numbering, V domains shown)
VH: B1 VH with Y57H
VL: B1 VL
B7: H1029/L0442 (antibody, human IgG1, kappa, name in Kabat numbering, V domains shown)
VH: B1 VH with Y57H, H59T
VL: B1 VL with S31E
notes: L442 = L395 + S31E
B8: H1049/L0395 (antibody, human IgG1, kappa, name in Kabat numbering, V domains shown)
VH: B1 VH with H59T
VL: B1 VL
B9: H1009/L0442 (antibody, human IgG1, kappa, name in Kabat numbering, V domains shown)
VH: B1 VH with D30S, K31D, H59T
VL: B1 VL with S31E
notes: L442 = L395 + S31E
B10: H1050/L0395 (antibody, human IgG1, kappa, name in Kabat numbering, V domains shown)
VH: B1 VH with D30S, K31E, H59T
VL: B1 VL
B11: H1047/L0442 (antibody, human IgG1, kappa, name in Kabat numbering, V domains shown)
VH: B1 VH with Y57G, H58Y, H59T
VL: B1 VL with S31E
notes: L442 = L395 + S31E
B12: H1032/L0395 (antibody, human IgG1, kappa, name in Kabat numbering, V domains shown)
VH: B1 VH with Y57G, H58Y
VL: B1 VL
B13: H1000/L0442 (antibody, human IgG1, kappa, name in Kabat numbering, V domains shown)
VH: B1 VH with D30S, K31E, Y57H, H59T
VL: B1 VL with S31E
notes: L442 = L395 + S31E
B14: H1040/L0395 (antibody, human IgG1, kappa, name in Kabat numbering, V domains shown)
VH: B1 VH with D30S, K31E, Y57H
VL: B1 VL
B15: H1004/L0442 (antibody, human IgG1, kappa, name in Kabat numbering, V domains shown)
VH: B1 VH with D30S, K31D, Y57G, H58Y, H59T
VL: B1 VL with S31E
notes: L442 = L395 + S31E
B16: H1046/L0395 (antibody, human IgG1, kappa, name in Kabat numbering, V domains shown)
VH: B1 VH with D30S, K31E
VL: B1 VL
B17: H1041/L0395 (antibody, human IgG1, kappa, name in Kabat numbering, V domains shown)
VH: B1 VH with D30S, K31E, Y57G, H58Y
VL: B1 VL
B18: H1032/L0442 (antibody, human IgG1, kappa, name in Kabat numbering, V domains shown)
VH: B1 VH with Y57G, H58Y
VL: B1 VL with S31E
notes: L442 = L395 + S31E
B19: H1050/L0442 (antibody, human IgG1, kappa, name in Kabat numbering, V domains shown)
VH: B1 VH with D30S, K31E, H59T
VL: B1 VL with S31E
notes: L442 = L395 + S31E
B20: H1047/L0395 (antibody, human IgG1, kappa, name in Kabat numbering, V domains shown)
VH: B1 VH with Y57G, H58Y, H59T
VL: B1 VL
B21: H1048/L0442 (antibody, human IgG1, kappa, name in Kabat numbering, V domains shown)
VH: B1 VH with D30S, K31E, Y57G, H58Y, H59T
VL: B1 VL with S31E
notes: L442 = L395 + S31E
B22: H1041/L0442 (antibody, human IgG1, kappa, name in Kabat numbering, V domains shown)
VH: B1 VH with D30S, K31E, Y57G, H58Y
VL: B1 VL with S31E
notes: L442 = L395 + S31E
B23: H1029/L0395 (antibody, human IgG1, kappa, name in Kabat numbering, V domains shown)
VH: B1 VH with Y57H, H59T
VL: B1 VL
B24: H1031/L0442 (antibody, human IgG1, kappa, name in Kabat numbering, V domains shown)
VH: B1 VH with Y57H
VL: B1 VL with S31E
notes: L442 = L395 + S31E
B25: H1022/L0442 (antibody, human IgG1, kappa, name in Kabat numbering, V domains shown)
VH: B1 VH with D30S, K31D, Y57H
VL: B1 VL with S31E
notes: L442 = L395 + S31E
B26: H1048/L0395 (antibody, human IgG1, kappa, name in Kabat numbering, V domains shown)
VH: B1 VH with D30S, K31E, Y57G, H58Y, H59T
VL: B1 VL
B27: H1022/L0395 (antibody, human IgG1, kappa, name in Kabat numbering, V domains shown)
VH: B1 VH with D30S, K31D, Y57H
VL: B1 VL
B28: H1028/L0395 (antibody, human IgG1, kappa, name in Kabat numbering, V domains shown)
VH: B1 VH with D30S, K31D
VL: B1 VL
B29: H0932/L0442 (antibody, human IgG1, kappa, name in Kabat numbering, V domains shown)
VH: B1 VH with D30S, K31D, Y57H, H59T
VL: B1 VL with S31E
B30: H0932/L0395 (antibody, name in Kabat numbering, V domains shown)
VH: B1 VH with D30S, K31D, Y57H, H59T
VL: B1 VL
B31: H1046/L0442 (antibody, human IgG1, kappa, name in Kabat numbering, V domains shown)
VH: B1 VH with D30S, K31E
VL: B1 VL with S31E
notes: L442 = L395 + S31E
B32: VH3-F1168m / L(WT) (antibody)
heavy: QVQLQESGPGLVKPSETLSLTCAVSGHSISHDHAWSWVRQPPGEGLEWIGFISYSGITNYNPSLQGRVTISRDNSKNTLYLQMNSLRAEDTAVYYCARSLARTTAMDYWGEGTLVTVSSASTKGPSVFPLAPSSKSTSGGTAALGCLVKDYFPEPVTVSWNSGALTSGVHTFPAVLQSSGLYSLSSVVTVPSSSLGTQTYICNVNHKPSNTKVDKKVEPKSCDKTHTCPPCPAPELLGGPSVFLFPPKPKDTLMISRTPEVTCVVVDVSHEDPEVKFNWYVDGVEVHNAKTKPREEQYNSTYRVVSVLTVLHQDWLNGKEYKCKVSNKALPAPIEKTISKAKGQPREPQVYTLPPSREEMTKNQVSLTCLVKGFYPSDIAVEWESNGQPENNYKTTPPVLDSDGSFFLYSKLTVDKSRWQQGNVFSCSVMHEALHAHYTRKELSLSP
light: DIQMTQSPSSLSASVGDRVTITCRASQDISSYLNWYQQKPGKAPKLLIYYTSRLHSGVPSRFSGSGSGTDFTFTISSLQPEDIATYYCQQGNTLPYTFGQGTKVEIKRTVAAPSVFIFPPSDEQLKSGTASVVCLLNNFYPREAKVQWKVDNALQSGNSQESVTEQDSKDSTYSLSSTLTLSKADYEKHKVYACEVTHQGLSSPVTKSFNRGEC
notes: Fc: N434A/Q438R/S440E
B33: VH3-F1889m / L(WT) (antibody)
heavy: B32 heavy with M430L, Y438V
light: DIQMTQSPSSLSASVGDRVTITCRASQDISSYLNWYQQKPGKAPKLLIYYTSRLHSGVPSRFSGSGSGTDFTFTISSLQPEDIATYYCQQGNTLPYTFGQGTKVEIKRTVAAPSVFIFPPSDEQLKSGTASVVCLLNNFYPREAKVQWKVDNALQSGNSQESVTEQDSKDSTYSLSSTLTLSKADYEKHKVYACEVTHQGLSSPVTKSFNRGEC
notes: Fc: M428L/N434A/Y436V/Q438R/S440E
B34: VH3-F1847m / L(WT) (antibody)
heavy: B32 heavy with Y438T
light: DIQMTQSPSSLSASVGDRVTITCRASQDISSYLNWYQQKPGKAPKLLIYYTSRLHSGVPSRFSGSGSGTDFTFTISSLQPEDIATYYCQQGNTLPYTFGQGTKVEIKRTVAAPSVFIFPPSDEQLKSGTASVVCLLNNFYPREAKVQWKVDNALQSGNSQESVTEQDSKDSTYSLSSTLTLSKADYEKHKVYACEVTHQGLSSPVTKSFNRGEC
notes: Fc: N434A/Y436T/Q438R/S440E
B35: VH3-F1886m / L(WT) (antibody)
heavy: B32 heavy with M430L, Y438T
light: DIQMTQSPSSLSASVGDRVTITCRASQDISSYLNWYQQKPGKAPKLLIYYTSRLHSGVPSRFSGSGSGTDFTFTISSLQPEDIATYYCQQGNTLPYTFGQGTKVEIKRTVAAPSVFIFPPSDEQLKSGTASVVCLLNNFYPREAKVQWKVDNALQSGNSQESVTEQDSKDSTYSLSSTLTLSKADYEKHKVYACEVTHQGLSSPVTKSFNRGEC
notes: Fc: M428L/N434A/Y436T/Q438R/S440E
B36: VH3-F1927m / L(WT) (antibody)
heavy: B32 heavy with M430L
light: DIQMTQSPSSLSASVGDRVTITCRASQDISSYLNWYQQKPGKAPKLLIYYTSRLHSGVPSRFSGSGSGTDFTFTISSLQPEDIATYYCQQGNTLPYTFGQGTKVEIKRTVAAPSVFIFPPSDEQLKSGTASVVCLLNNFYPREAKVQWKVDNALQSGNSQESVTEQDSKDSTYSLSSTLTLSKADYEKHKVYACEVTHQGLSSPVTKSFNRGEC
notes: Fc: M428L/N434A/Q438R/S440E
B37: VH3-F1848m / L(WT) (antibody)
heavy: B32 heavy with Y438V
light: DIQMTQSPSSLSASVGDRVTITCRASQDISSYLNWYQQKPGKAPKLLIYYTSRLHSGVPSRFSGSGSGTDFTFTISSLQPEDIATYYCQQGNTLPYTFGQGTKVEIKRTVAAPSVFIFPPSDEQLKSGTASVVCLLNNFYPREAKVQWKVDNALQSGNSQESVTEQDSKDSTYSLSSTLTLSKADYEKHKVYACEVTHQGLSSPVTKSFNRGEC
notes: Fc: N434A/Y436V/Q438R/S440E
B38: VH3-YTE / L(WT) (antibody, human IgG1, kappa)
heavy: B32 heavy with M254Y, S256T, T258E, A436N, R440Q, E442S
light: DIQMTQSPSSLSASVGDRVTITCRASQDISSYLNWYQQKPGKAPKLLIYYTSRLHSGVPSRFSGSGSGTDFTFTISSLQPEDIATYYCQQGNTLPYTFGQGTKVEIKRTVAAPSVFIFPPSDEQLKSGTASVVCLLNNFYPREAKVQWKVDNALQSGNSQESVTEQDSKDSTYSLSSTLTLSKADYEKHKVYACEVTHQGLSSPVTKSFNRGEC
notes: Fc: M252Y/S254T/T256E

target: T1, human IL-8 (human, UniProt P10145 23-99, limits assumed); test: SPR Biacore T200, Protein A/G capture, pH 5.8, 37C;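 note: antibodies captured by Protein A/G amine-coupled onto a CM4 sensor chip, with kinetic parameters derived using Biacore T200 Evaluation Software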
T1 construct: also called hIL-8; hIL8
T1 sequence (P10145 23-99 limits assumed): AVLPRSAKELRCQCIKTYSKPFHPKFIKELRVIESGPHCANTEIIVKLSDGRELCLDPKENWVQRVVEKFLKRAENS
Method: (§1) An appropriate amount of Protein A/G (PIERCE) was immobilized onto the Sensor chip CM4 (GE Healthcare) by the amine coupling method and the antibodies of interest were captured. […] To regenerate the sensor chip, 25 mM NaOH and 10 mM glycine-HCl (pH 1.5) were used. […] The BIACORE T200 Evaluation Software (GE Healthcare) was used to calculate each parameter.

Kd [nM]	koff [s⁻¹]	Binder
70	0.015	B1
33	0.0045	B2
140	0.13	B3
61	0.015	B4
89	0.02	B5
99		B6
48	0.0085	B7
38	0.004	B8
63	0.006	B9
77	0.005	B10
47		B11
50	0.0041	B12
71	0.017	B13
240	0.046	B14
77	0.02	B15
160	0.012	B16
71	0.013	B17
43	0.0059	B18
54	0.0076	B19
47	0.006	B20
67		B21
61	0.015	B22
55	0.008	B23
89		B24
180	0.02	B25
90		B26
290	12	B27
210		B28
79		B29

target: T1, human IL-8; test: SPR Biacore T200, Protein A/G capture, pH 7.4, 40C;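 note: antibodies captured via Protein A/G, which was amine-coupled to a CM4 sensor chip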
Method: as §1

Kd [nM]	Binder
0.16	B30
0.094	B1
0.053	B2
0.24	B3
0.13	B4
0.14	B5
0.14	B7
0.025	B8
0.11	B9
0.066	B10
0.042	B12
0.2	B13
0.26	B14
0.22	B15
0.18	B16
0.23	B31
0.08	B17
0.078	B18
0.099	B19
0.095	B20
0.12	B22
0.086	B23
0.36	B25
0.27	B27
0.18	B28

target: T2, human FcRn (human, UniProt P55899 24-290; P61769 21-119, limits assumed); test: SPR Biacore T100, Ab captured on Protein L, FcRn analyte, pH 6.0, 25C
T2 construct: also called hFcRn
Method: Antibodies containing VH3-IgG1m or an above-mentioned variant as the heavy chain and L(WT) (SEQ ID NO:1) as the light chain were produced by the method of Reference Example 2, and the binding activity toward human FcRn was evaluated as follows.
Kinetic analyses of human FcRn and each of the antibodies were carried out using BIACORE T100 (GE Healthcare). […] For the running buffer, 50 mM sodium phosphate, 150 mM NaCl, and 0.05% (w/v) Tween 20 at pH 6.0 was used, and the respective buffer was also used to dilute FcRn. […] All measurements were carried out at 25° C.

Kd [nM]	Binder
410	B32
103	B33
367	B34
108	B35
125	B36
295	B37
148	B38
